Experimental data: paper PMC3377377

Biological target: histone H3 tail symmetrically dimethylated on R2 and trimethylated on K4 (H3R2me2sK4me3)
Assay: fluorescence polarisation

PHD finger of RAG2 (domain or fragment)
fold increase in binding affinity against H3K4me3 alone: 20 fold
